Data: patent US20190016816A1 (APTEVO RESEARCH AND DEVELOPMENT, published 2019)

T1: human 5T4 on cells (human, UniProt Q13641 32-420)
T1 sequence: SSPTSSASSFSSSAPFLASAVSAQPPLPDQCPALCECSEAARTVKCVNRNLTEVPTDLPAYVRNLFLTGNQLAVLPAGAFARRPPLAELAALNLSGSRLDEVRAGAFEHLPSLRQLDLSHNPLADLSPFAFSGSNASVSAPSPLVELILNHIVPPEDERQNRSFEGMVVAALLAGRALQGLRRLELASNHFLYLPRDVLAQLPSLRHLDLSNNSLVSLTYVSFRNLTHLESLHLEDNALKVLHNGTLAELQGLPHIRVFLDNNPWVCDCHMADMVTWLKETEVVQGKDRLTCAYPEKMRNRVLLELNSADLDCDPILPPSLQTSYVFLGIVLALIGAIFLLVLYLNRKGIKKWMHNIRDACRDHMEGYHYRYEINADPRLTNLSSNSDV


Assays:
[1] = molecular target: T1, human 5T4 on cells; test: cell-based or functional assay
[2] = molecular target: T1, human 5T4 on cells; test: flow cytometry, CT26-hu5T4^high cells, streptavidin-PE, normalized MFI of 2 pooled experiments
Experimental: Prior to the FACS staining, all cell lines were characterized for their 5T4 expression levels using a receptor density kit (Quantum Simply Cellular, anti-human IgG, Bangs Laboratories, Inc). Adherent cell lines were cultured according to their supplier's instructions and were harvested from their cell culture flasks using Trypsin/EDTA, counted in R10 medium in a Burker chamber, and diluted in FACS buffer (PBS+0.5% BSA, 0.05% NaN₃) to a concentration of 4×10⁶ cells/mL. 50 μL (0.20×10⁶) of cell solution was added to a 96-well FACS staining plate (Falcon #351190). Cells were incubated for 20 min in 4° C. with 50 μL of the biotinylated ALG.APV-210 (2× final concentration). The antibodies were added in a serial dilution starting at 20 μg/mL titrating down in a 12 step ½ dilution down to 0.010 μg/mL. Following 2× washing with FACS buffer, cells were incubated for 30 min in 4° C. with 100 μL of a secondary antibody (streptavidin-PE, BD #554061, diluted 1/500). […] Cells were analysed for ALG.APV-210 binding using flow cytometry (FACSVerse) by gating on single cells. MFI values (secondary antibody only subtracted) from 1 out of 2 independent experiments, as well as normalized data and EC₅₀-values of pooled data from 2 experiments were determined and plotted using GraphPad Prism 7, non-linear regression log (agonist) vs. normalized response—variable slope.

[3] = molecular target: T2, human CD137 on cells (human, UniProt Q07011 24-255); test: flow cytometry, percentage of CD8 T cells (gated from CD3-stimulated human PBMC) bound by the biotinylated antibody, exp 1, n=3 donors
T2 construct: also called 4-1BB; TNFRSF9 (CHO-K1/human CD137 cells)
Experimental: (§1) Following 48 h of incubation with or without CD3, human and cynomolgus PBMC were harvested, pooled, recounted and diluted in FACS buffer (PBS+0.5% BSA, 0.05% NaN₃) to a concentration of 5×10⁶ cells/mL. 50 μL (0.25×10⁶ cells) of cell solution was added to a 96-well FACS staining plate (Falcon #351190). Following 10 min of Fc-blocking in RT using Beriglobin (hIgG, 200 μg/mL), cells were washed in FACS buffer and then incubated for 1 h in 4° C. with 100 μL of the biotinylated ALG.APV-210 or negative control. The antibodies were added in a serial dilution starting either at 5 μg/mL titrating down in a 12 step ⅓ dilution down to 0.0003 μg/mL (exp 1) or 1 μg/mL titrating down in a 12 step ½ dilution down to 0.0005 μg/mL (exp 2). […] Cells were analysed for ALG.APV-210 binding using flow cytometry by gating on viable, single cells expressing CD3 and CD8. MFI values (FMO subtracted) from 2 independent experiments as well as normalized pooled data from 2 experiments and EC₅₀-values were determined and plotted using GraphPad Prism 7, non-linear regression log (agonist) vs. normalized response—variable slope, n=6 donors/group.

[4] = molecular target: T2, human CD137 on cells; test: flow cytometry, CD8 T cells gated from CD3-stimulated human PBMC, biotinylated antibody + streptavidin-APC, exp 2, n=3 donors
Experimental: as §1, with “control.” for “control. The antibodies were added in a serial dilution starting either at 5 μg/mL titrating down in a 12 step ⅓ dilution down to 0.0003 μg/mL (exp 1) or 1 μg/mL titrating down in a 12 step ½ dilution down to 0.0005 μg/mL (exp 2).”
In ELISA tests, the binding of biotinylated ALG.APV-210 to CD137 was similar to that of the non-biotinylated ALG.APV-210 (0.6 nM vs. 0.7 nM). The binding (EC₅₀) of the biotinylated ALG.APV-210 to its immunomodulatory target CD137 when expressed on activated primary human and cynomolgus CD8 T cells from CD3 stimulated PBMC was assessed and compared between the two species as well as to unstimulated cells. […]

T2 sequence (Q07011 24-255 limits assumed): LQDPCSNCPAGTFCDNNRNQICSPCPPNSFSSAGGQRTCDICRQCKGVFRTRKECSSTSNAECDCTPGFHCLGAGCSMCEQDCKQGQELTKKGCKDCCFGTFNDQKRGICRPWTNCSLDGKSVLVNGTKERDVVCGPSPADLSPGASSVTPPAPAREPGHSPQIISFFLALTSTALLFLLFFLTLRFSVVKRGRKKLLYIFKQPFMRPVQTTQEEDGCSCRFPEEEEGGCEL

Binder | EC50 (nM), IFNγ release of human CD8 T cells with CT26-h5T4^high cells [1] [nM] | EC50 (nM), IFNγ release of human CD8 T cells with CT26-h5T4^low cells [1] [nM] | EC50 [2] [nM] | EC50 (read off the curve) [3] [nM] | EC50 (read off the curve) [4] [nM]
ALG.APV-210 (bispecific antibody, Optimized ADAPTIR scFv-Fc-scFv homodimer with stabilizing disulfide in the 1210 scFv; also called 5T4-CD137 bispecific antibody) EVQLLESGGGLVQPGGSLRLSCAASGFTFSHGSMYWVRQAPGKGLEWVSSISSGSGSTYYADSVKGRFTISHDNSKNTLYLQMNSLRAEDTAVYYCARSSYYGSYYSIDYWGQGTLVTVSSGGGGSGGGGSGGGGSGGGGSDIQMTQSPSSLSASVGDRVTITCRASQSISSYLNWYQQKPGKAPKLLIYAASSLQSGVPSRFSGSGSGTDFTLTISSLQPEDFATYYCQQYYDNLPTFGQGTKLEIKEPKSSDKTHTCPPCPAPEAAGAPSVFLFPPKPKDTLMISRTPEVTCVVVDVSHEDPEVKFNWYVDGVEVHNAKTKPREEQYNSTYRVVSVLTVLHQDWLNGKEYKCAVSNKALPAPIEKTISKAKGQPREPQVYTLPPSRDELTKNQVSLTCLVKGFYPSDIAVEWESNGQPENNYKTTPPVLDSDGSFFLYSKLTVDKSRWQQGNVFSCSVMHEALHNHYTQKSLSLSPGSGGGGSGGGGSGGGGSPSEVQLLESGGGLVQPGGSLRLSCAASGFTFSSYAMSWVRQAPGKCLEWVSAISGSGGSTYYADSVKGRFTISRDNSKNTLYLQMNSLRAEDTAVYYCARYYGGYYSAWMDYWGQGTLVTVSSGGGGSGGGGSGGGGSGGGGSDIQMTQSPSSLSASVGDRVTITCRASQSISSFLNWYQQKPGKAPKLLIYAASSLQSGVPSRFSGSGSGTDFTLTISSLQPEDSATYYCQQTYGYLHTFGCGTKLEIKR | 0.41 | 0.24 |  |  | 
biotinylated ALG.APV-210 (bispecific antibody, also called ALG.APV-210 (biotinylated for FACS detection)) EVQLLESGGGLVQPGGSLRLSCAASGFTFSHGSMYWVRQAPGKGLEWVSSISSGSGSTYYADSVKGRFTISHDNSKNTLYLQMNSLRAEDTAVYYCARSSYYGSYYSIDYWGQGTLVTVSSGGGGSGGGGSGGGGSGGGGSDIQMTQSPSSLSASVGDRVTITCRASQSISSYLNWYQQKPGKAPKLLIYAASSLQSGVPSRFSGSGSGTDFTLTISSLQPEDFATYYCQQYYDNLPTFGQGTKLEIKEPKSSDKTHTCPPCPAPEAAGAPSVFLFPPKPKDTLMISRTPEVTCVVVDVSHEDPEVKFNWYVDGVEVHNAKTKPREEQYNSTYRVVSVLTVLHQDWLNGKEYKCAVSNKALPAPIEKTISKAKGQPREPQVYTLPPSRDELTKNQVSLTCLVKGFYPSDIAVEWESNGQPENNYKTTPPVLDSDGSFFLYSKLTVDKSRWQQGNVFSCSVMHEALHNHYTQKSLSLSPGSGGGGSGGGGSGGGGSPSEVQLLESGGGLVQPGGSLRLSCAASGFTFSSYAMSWVRQAPGKCLEWVSAISGSGGSTYYADSVKGRFTISRDNSKNTLYLQMNSLRAEDTAVYYCARYYGGYYSAWMDYWGQGTLVTVSSGGGGSGGGGSGGGGSGGGGSDIQMTQSPSSLSASVGDRVTITCRASQSISSFLNWYQQKPGKAPKLLIYAASSLQSGVPSRFSGSGSGTDFTLTISSLQPEDSATYYCQQTYGYLHTFGCGTKLEIKR |  |  | 20 | ~0.02 | ~0.2
